Tested on: peptide library, one residue held at a place counted from the S/T acceptor
Assay: relative phosphorylation of the sub-library (ratio to the mean residue at this position); human; higher = residue favoured
Conditions: V fixed; at +3
How it was run: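 Purified recombinant kinases (human or orthologue constructs) were incubated in 384-well plates with biotinylated degenerate peptide sub-libraries, each fixing one residue at one position around a central Ser/Thr. Peptides were at 50 μM, with 50 μM ATP spiked with γ-32P-ATP, for 90 min under kinase-specific conditions. Spots on streptavidin membranes were phosphorimaged and quantified by densitometry. Relative sub-library phosphorylation is a ratio to the mean residue at that position.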

NEK1, construct: aa1-505, sequence (Q96PY6 1-505, looked up): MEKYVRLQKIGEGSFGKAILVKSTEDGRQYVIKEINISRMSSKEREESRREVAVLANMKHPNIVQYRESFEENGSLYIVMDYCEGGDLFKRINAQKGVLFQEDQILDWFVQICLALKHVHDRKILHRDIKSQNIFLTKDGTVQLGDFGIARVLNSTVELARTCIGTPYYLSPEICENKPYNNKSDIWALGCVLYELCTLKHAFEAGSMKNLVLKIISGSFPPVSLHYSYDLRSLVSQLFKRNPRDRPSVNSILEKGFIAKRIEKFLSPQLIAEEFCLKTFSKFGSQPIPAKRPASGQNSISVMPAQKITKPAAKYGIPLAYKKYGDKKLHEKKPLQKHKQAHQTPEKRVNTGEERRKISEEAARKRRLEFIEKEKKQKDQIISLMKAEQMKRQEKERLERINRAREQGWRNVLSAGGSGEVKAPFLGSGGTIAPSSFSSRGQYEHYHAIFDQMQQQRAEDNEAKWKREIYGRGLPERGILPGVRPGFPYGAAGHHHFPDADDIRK
STK10, construct: aa18-317, sequence (O94804 18-317, looked up): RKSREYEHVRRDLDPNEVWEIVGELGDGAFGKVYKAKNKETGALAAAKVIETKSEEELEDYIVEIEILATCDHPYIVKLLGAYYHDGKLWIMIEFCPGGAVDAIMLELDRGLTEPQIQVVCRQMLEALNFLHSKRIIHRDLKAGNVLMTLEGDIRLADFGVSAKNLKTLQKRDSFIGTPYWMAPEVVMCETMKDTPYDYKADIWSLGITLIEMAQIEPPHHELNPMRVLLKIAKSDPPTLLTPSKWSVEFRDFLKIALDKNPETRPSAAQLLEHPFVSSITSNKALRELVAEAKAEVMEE
CSNK2A1, construct: Full length, sequence (P68400 whole entry, looked up): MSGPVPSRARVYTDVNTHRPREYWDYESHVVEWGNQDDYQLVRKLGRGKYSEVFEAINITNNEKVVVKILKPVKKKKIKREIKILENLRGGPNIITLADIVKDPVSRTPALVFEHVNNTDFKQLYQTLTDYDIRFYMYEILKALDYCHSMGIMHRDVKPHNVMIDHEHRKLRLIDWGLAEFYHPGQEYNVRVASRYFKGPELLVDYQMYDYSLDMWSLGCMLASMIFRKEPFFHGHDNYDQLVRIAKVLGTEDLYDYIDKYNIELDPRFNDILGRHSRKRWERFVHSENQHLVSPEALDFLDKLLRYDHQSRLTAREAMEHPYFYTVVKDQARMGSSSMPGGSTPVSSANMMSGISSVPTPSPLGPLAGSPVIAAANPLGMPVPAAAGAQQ
PAK2, construct: aa3-end, sequence (Q13177 3-524, looked up): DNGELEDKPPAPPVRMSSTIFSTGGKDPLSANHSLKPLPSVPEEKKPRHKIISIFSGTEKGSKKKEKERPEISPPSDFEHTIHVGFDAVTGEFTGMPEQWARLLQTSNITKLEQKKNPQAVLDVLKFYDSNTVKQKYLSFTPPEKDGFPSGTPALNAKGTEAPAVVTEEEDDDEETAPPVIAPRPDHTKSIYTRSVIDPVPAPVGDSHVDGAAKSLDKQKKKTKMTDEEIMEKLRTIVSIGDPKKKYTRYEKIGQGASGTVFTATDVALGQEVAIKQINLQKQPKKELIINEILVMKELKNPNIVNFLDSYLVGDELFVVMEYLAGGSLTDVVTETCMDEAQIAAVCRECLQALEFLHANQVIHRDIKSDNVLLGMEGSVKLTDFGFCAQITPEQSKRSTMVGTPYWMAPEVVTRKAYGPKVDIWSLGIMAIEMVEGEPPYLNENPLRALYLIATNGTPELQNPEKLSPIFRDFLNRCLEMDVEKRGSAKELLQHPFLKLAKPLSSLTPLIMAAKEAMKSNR

Substance | relative phosphorylation
NEK1, construct: aa1-505 (from UniProt Q96PY6) | 0.851
PAK2, construct: aa3-end (from UniProt Q13177) | 0.906
PRKCG, construct: Full length (from UniProt P05129) | 0.608
STK10, construct: aa18-317 (from UniProt O94804) | 0.613
STK39, construct: Full length (from UniProt Q9UEW8) | 0.72

Same assay, conditions: V fixed; at +4

Substance | relative phosphorylation
CSNK2A1, construct: Full length (from UniProt P68400) | 0.76
NEK1, construct: aa1-505 (from UniProt Q96PY6) | 0.78
PAK2, construct: aa3-end (from UniProt Q13177) | 0.787
PRKCG, construct: Full length (from UniProt P05129) | 0.563
STK10, construct: aa18-317 (from UniProt O94804) | 0.724
STK39, construct: Full length (from UniProt Q9UEW8) | 0.694

Same assay, conditions: V fixed; at -1

Substance | relative phosphorylation
CSNK2A1, construct: Full length (from UniProt P68400) | 0.751
NEK1, construct: aa1-505 (from UniProt Q96PY6) | 0.522
PAK2, construct: aa3-end (from UniProt Q13177) | 0.763
PRKCG, construct: Full length (from UniProt P05129) | 0.497
STK10, construct: aa18-317 (from UniProt O94804) | 0.6
STK39, construct: Full length (from UniProt Q9UEW8) | 0.584

Same assay, conditions: V fixed; at -2

Substance | relative phosphorylation
CSNK2A1, construct: Full length (from UniProt P68400) | 0.859
NEK1, construct: aa1-505 (from UniProt Q96PY6) | 0.713
PAK2, construct: aa3-end (from UniProt Q13177) | 0.642
PRKCG, construct: Full length (from UniProt P05129) | 0.418
STK10, construct: aa18-317 (from UniProt O94804) | 0.485
STK39, construct: Full length (from UniProt Q9UEW8) | 0.457

Same assay, conditions: V fixed; at -3

Substance | relative phosphorylation
CSNK2A1, construct: Full length (from UniProt P68400) | 0.801
NEK1, construct: aa1-505 (from UniProt Q96PY6) | 0.444
PAK2, construct: aa3-end (from UniProt Q13177) | 0.557
PRKCG, construct: Full length (from UniProt P05129) | 0.496
STK10, construct: aa18-317 (from UniProt O94804) | 0.475
STK39, construct: Full length (from UniProt Q9UEW8) | 0.623

Same assay, conditions: V fixed; at -4

Substance | relative phosphorylation
CSNK2A1, construct: Full length (from UniProt P68400) | 0.826
NEK1, construct: aa1-505 (from UniProt Q96PY6) | 0.783
PAK2, construct: aa3-end (from UniProt Q13177) | 0.688
PRKCG, construct: Full length (from UniProt P05129) | 0.639
STK10, construct: aa18-317 (from UniProt O94804) | 0.795
STK39, construct: Full length (from UniProt Q9UEW8) | 0.769

Same assay, conditions: V fixed; at -5

Substance | relative phosphorylation
CSNK2A1, construct: Full length (from UniProt P68400) | 0.969
NEK1, construct: aa1-505 (from UniProt Q96PY6) | 0.82
PAK2, construct: aa3-end (from UniProt Q13177) | 0.694
PRKCG, construct: Full length (from UniProt P05129) | 0.723
STK10, construct: aa18-317 (from UniProt O94804) | 0.814
STK39, construct: Full length (from UniProt Q9UEW8) | 0.911

Same assay, conditions: W fixed; at +1

Substance | relative phosphorylation
CSNK2A1, construct: Full length (from UniProt P68400) | 0.236
NEK1, construct: aa1-505 (from UniProt Q96PY6) | 1.27
PAK2, construct: aa3-end (from UniProt Q13177) | 1.65
PRKCG, construct: Full length (from UniProt P05129) | 0.751
STK10, construct: aa18-317 (from UniProt O94804) | 1.49
STK39, construct: Full length (from UniProt Q9UEW8) | 2.89

Same assay, conditions: W fixed; at +2

Substance | relative phosphorylation
CSNK2A1, construct: Full length (from UniProt P68400) | 1.16
NEK1, construct: aa1-505 (from UniProt Q96PY6) | 0.727
PAK2, construct: aa3-end (from UniProt Q13177) | 1.18
PRKCG, construct: Full length (from UniProt P05129) | 0.6
STK10, construct: aa18-317 (from UniProt O94804) | 0.732
STK39, construct: Full length (from UniProt Q9UEW8) | 0.987

Same assay, conditions: W fixed; at +3

Substance | relative phosphorylation
CSNK2A1, construct: Full length (from UniProt P68400) | 0.328
NEK1, construct: aa1-505 (from UniProt Q96PY6) | 1.37
PAK2, construct: aa3-end (from UniProt Q13177) | 1.33
PRKCG, construct: Full length (from UniProt P05129) | 1.03
STK10, construct: aa18-317 (from UniProt O94804) | 0.987
STK39, construct: Full length (from UniProt Q9UEW8) | 1.16

Same assay, conditions: W fixed; at +4

Substance | relative phosphorylation
CSNK2A1, construct: Full length (from UniProt P68400) | 1.32
NEK1, construct: aa1-505 (from UniProt Q96PY6) | 1.29
PAK2, construct: aa3-end (from UniProt Q13177) | 1.15
PRKCG, construct: Full length (from UniProt P05129) | 0.817
STK10, construct: aa18-317 (from UniProt O94804) | 0.896
STK39, construct: Full length (from UniProt Q9UEW8) | 1.37

Same assay, conditions: W fixed; at -1

Substance | relative phosphorylation
CSNK2A1, construct: Full length (from UniProt P68400) | 0.914
NEK1, construct: aa1-505 (from UniProt Q96PY6) | 0.895
PAK2, construct: aa3-end (from UniProt Q13177) | 1.03
PRKCG, construct: Full length (from UniProt P05129) | 0.558
STK10, construct: aa18-317 (from UniProt O94804) | 0.93
STK39, construct: Full length (from UniProt Q9UEW8) | 1.06

Same assay, conditions: W fixed; at -2

Substance | relative phosphorylation
CSNK2A1, construct: Full length (from UniProt P68400) | 1.12
NEK1, construct: aa1-505 (from UniProt Q96PY6) | 1.04
PAK2, construct: aa3-end (from UniProt Q13177) | 0.485
PRKCG, construct: Full length (from UniProt P05129) | 1
STK10, construct: aa18-317 (from UniProt O94804) | 0.881
STK39, construct: Full length (from UniProt Q9UEW8) | 1.17

Same assay, conditions: W fixed; at -3

Substance | relative phosphorylation
CSNK2A1, construct: Full length (from UniProt P68400) | 0.897
NEK1, construct: aa1-505 (from UniProt Q96PY6) | 1.08
PAK2, construct: aa3-end (from UniProt Q13177) | 0.954
PRKCG, construct: Full length (from UniProt P05129) | 0.707
STK10, construct: aa18-317 (from UniProt O94804) | 1.24
STK39, construct: Full length (from UniProt Q9UEW8) | 1.03

Same assay, conditions: W fixed; at -4

Substance | relative phosphorylation
CSNK2A1, construct: Full length (from UniProt P68400) | 0.927
NEK1, construct: aa1-505 (from UniProt Q96PY6) | 1.23
PAK2, construct: aa3-end (from UniProt Q13177) | 0.887
PRKCG, construct: Full length (from UniProt P05129) | 1.23
STK10, construct: aa18-317 (from UniProt O94804) | 1.05
STK39, construct: Full length (from UniProt Q9UEW8) | 1.18

Same assay, conditions: W fixed; at -5

Substance | relative phosphorylation
CSNK2A1, construct: Full length (from UniProt P68400) | 1.15
NEK1, construct: aa1-505 (from UniProt Q96PY6) | 0.947
PAK2, construct: aa3-end (from UniProt Q13177) | 0.801
PRKCG, construct: Full length (from UniProt P05129) | 1.54
STK10, construct: aa18-317 (from UniProt O94804) | 0.769
STK39, construct: Full length (from UniProt Q9UEW8) | 1.17

Same assay, conditions: Y fixed; at +1

Substance | relative phosphorylation
CSNK2A1, construct: Full length (from UniProt P68400) | 0.238
NEK1, construct: aa1-505 (from UniProt Q96PY6) | 1.18
PAK2, construct: aa3-end (from UniProt Q13177) | 1.23
PRKCG, construct: Full length (from UniProt P05129) | 1.05
STK10, construct: aa18-317 (from UniProt O94804) | 1.3
STK39, construct: Full length (from UniProt Q9UEW8) | 1.23

Same assay, conditions: Y fixed; at +2

Substance | relative phosphorylation
CSNK2A1, construct: Full length (from UniProt P68400) | 0.923
NEK1, construct: aa1-505 (from UniProt Q96PY6) | 0.996
PAK2, construct: aa3-end (from UniProt Q13177) | 2.42
PRKCG, construct: Full length (from UniProt P05129) | 1.22
STK10, construct: aa18-317 (from UniProt O94804) | 0.688
STK39, construct: Full length (from UniProt Q9UEW8) | 1.61

Same assay, conditions: Y fixed; at +3

Substance | relative phosphorylation
CSNK2A1, construct: Full length (from UniProt P68400) | 0.385
NEK1, construct: aa1-505 (from UniProt Q96PY6) | 1.18
PAK2, construct: aa3-end (from UniProt Q13177) | 1.42
PRKCG, construct: Full length (from UniProt P05129) | 1.12
STK10, construct: aa18-317 (from UniProt O94804) | 0.91
STK39, construct: Full length (from UniProt Q9UEW8) | 1.19

Same assay, conditions: Y fixed; at +4

Substance | relative phosphorylation
CSNK2A1, construct: Full length (from UniProt P68400) | 0.933
NEK1, construct: aa1-505 (from UniProt Q96PY6) | 0.738
PAK2, construct: aa3-end (from UniProt Q13177) | 0.824
PRKCG, construct: Full length (from UniProt P05129) | 0.664
STK10, construct: aa18-317 (from UniProt O94804) | 0.699
STK39, construct: Full length (from UniProt Q9UEW8) | 0.933

Same assay, conditions: Y fixed; at -1

Substance | relative phosphorylation
CSNK2A1, construct: Full length (from UniProt P68400) | 0.954
NEK1, construct: aa1-505 (from UniProt Q96PY6) | 1.26
PAK2, construct: aa3-end (from UniProt Q13177) | 1.25
PRKCG, construct: Full length (from UniProt P05129) | 0.869
STK10, construct: aa18-317 (from UniProt O94804) | 1.38
STK39, construct: Full length (from UniProt Q9UEW8) | 1.3

Same assay, conditions: Y fixed; at -2

Substance | relative phosphorylation
CSNK2A1, construct: Full length (from UniProt P68400) | 2.62
NEK1, construct: aa1-505 (from UniProt Q96PY6) | 0.89
PAK2, construct: aa3-end (from UniProt Q13177) | 0.821
